For series [1], the system named is T1, MBP-MogR (Bacillus thuringiensis 407), ORF:ee0ae10c.
T1 sequence: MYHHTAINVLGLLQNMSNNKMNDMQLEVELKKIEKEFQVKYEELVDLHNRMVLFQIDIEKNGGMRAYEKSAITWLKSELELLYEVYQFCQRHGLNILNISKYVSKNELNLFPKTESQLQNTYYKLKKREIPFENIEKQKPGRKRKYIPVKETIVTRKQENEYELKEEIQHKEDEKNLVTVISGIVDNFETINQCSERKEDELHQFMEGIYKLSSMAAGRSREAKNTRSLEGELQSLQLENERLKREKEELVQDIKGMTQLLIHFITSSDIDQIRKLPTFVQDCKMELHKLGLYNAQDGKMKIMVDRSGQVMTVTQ
Briefly: EMSA.

Series [2] has as its system T2, MBP-MogRQN→AA Q119A;N120A (Bacillus thuringiensis 407), ORF:ee0ae10c.
T2 sequence: T1 sequence with Q119A, N120A
In words: EMSA.

The record followed here is publication PMC7793685.

Changes are numbered by the printed parent chain.

For the sequence “CAACTATCATAATATCACCTTTTCGGTAAACAAAGATAATCTAATATTAGAGTTTTTTTTTAAAGTTTGCAATAATCCTTTTAATAATTATGTAATAAAAAATGAATATATTGTTAAACTGTTATTTTTTTATATTTATTAATTCGAATTTTTAGTTGACACCCG (double strand) [fla promoter fragment]”, the figures for the binding entry in series [1] and in series [2] were “binds” and “no binding”, respectively.

Turning to “TTACAGAAATGAAATTTACGGATAACTATATTTATATAATTTTTTCGGTTCATATTTTTATTTAACAGTAAATTATCGATCGTAATCGACAAAATTTTTCTATTTACGCATTAAAAATTTAATGTTTTAATGAACAACATAACTGGTATGACCAGACAGAAAGGATAAGG (double strand) [hbl promoter fragment]”, the binding result in series [1] is listed as “binds”.
